# Assay results: patent US20230287070A1, “NOVEL TUMOR-SPECIFIC ANTIGENS FOR ACUTE MYELOID LEUKEMIA (AML) AND USES THEREOF” (UNIVERSITE DE MONTREAL, priority 2020, published 2023)
# How the values were obtained:
# T-cell clonotypes = experiment: FEST assay (functional expansion of specific T cells, TCR Vβ CDR3 sequencing); assay type: cell-based, human; settings: pool of TSAs^hi, healthy donor
# Method: For FEST assays, T cells were cultured as previously described, with minor modifications (Danilova et al., 2018). Briefly, on day 0, thawed PBMCs from a healthy donor (BioIVT) were T-cell enriched using the Human Pan T-cell isolation kit (Miltenyi). T cells were resuspended at 2 × 10^6/mL in AIM V media supplemented with 50 µg/mL gentamicin (ThermoFisher Scientific) and 1% Hepes. The T cell-negative fraction was irradiated at 30 Gy, washed and resuspended at 2.0 × 10^6/mL in AIM V media supplemented with 50 µg/mL gentamicin and 1% Hepes. One ml per well of both T cells and irradiated T cell-depleted cells were added to a 12-well plate, along with either one of the 3 TSA^hi pools (5 TSAs^hi per pool, 1 µM final concentration for each TSA) or without peptide. Cells were cultured for 10 days at 37° C., 5% CO2. On day 3 and 7, half the culture media was replaced with fresh culture media containing 100 IU/mL IL-2, 50 ng/mL IL-7, and 50 ng/mL IL-15 (day 3) and 200 IU/mL IL-2, 50 ng/mL IL-7, and 50 ng/mL IL-15 (day 7). On day 10, cells were harvested and CD8^+ cells were further isolated using the Human CD8^+ T Cell Isolation Kit (Miltenyi). As a negative control, CD8^+ T cells were also isolated from freshly thawed uncultured PBMCs of the same healthy donor. DNA was extracted from CD8^+ T cells using a Qiagen DNA blood mini kit (Qiagen). […]
# [1] = target: Pool 3 of TSAs^hi: LRSQILSY … … … …; experiment: cell-based or functional assay
# [2] = target: Pool 2 of TSAs^hi: … … … … …; experiment: cell-based or functional assay
# [3] = target: Pool 1 of TSAs^hi: … … … IASPIALL …; experiment: cell-based or functional assay
molecule,measurement,setting,value
3 (GARQQIHSW; listed as Homo sapiens) [compound 3],Significantly expanded clonotype (SEQ ID NO:),T-cell clonotypes,CARSFGGFF (213)
CASSADSSLGGYTF (TCR),"FEST assay: clonotype expansion, odds ratio (FDR 1.13 E-10)",[1],45.4
CASSSTDRQHYGYTF (TCR),"FEST assay: clonotype expansion, odds ratio (FDR 0.007052)",[2],3.76
CATSRSGDSNQPQHF (TCR),"FEST assay: clonotype expansion, odds ratio (FDR 0.008031)",[2],8.21
CASSYVLNTEAFF (TCR),"FEST assay: clonotype expansion, odds ratio (FDR 0.010284)",[2],10.8
CASSEYRALNTEAFF (TCR),"FEST assay: clonotype expansion, odds ratio (FDR 4.67 E-30)",[2],59.8
CASSVDAGGNYEQYF (TCR),"FEST assay: clonotype expansion, odds ratio (FDR 0.000665)",[3],12.3
CASSDRTGGSSNEKLFF (TCR),"FEST assay: clonotype expansion, odds ratio (FDR 0.008031)",[2],8.21
CASSESGTGGQPQHF (TCR),"FEST assay: clonotype expansion, odds ratio (FDR 1.14 E-08)",[2],3.46
CASSRTGENTEAFF (TCR),"FEST assay: clonotype expansion, odds ratio (FDR 0.003813)",[2],3.35
CASTVVAGNSSPLHF (TCR),"FEST assay: clonotype expansion, odds ratio (FDR 1.2 E-07)",[3],18.8
